Reference: the NTF2 design screens of Basanta et al. (2020)

Experiment: protease stability score; higher = more stable; yeast display proteolysis, trypsin and chymotrypsin;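 further: relative to predicted unfolded state with 0 unfolded-like and 1 meaning tenfold more protease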

Row | Sequence | protease stability score
1 | SEEDHFMKHLVDHWAKIEQTGDEHALHELLDPDARVSIKIGDKEHIVHGREYLIELWRQLGFKVIKIHDHTVFNGVVKLHGHWHFDGREVHVEQDLIIINGRVKTVLMRVK | 1.72
2 | SEEDHHADEFRRIMYEIFETGDEKKFEDLFDPNVRWEQGDKHTHGMETATRDMLDLERRLGVDHIKYKDIRFELVDGRMIVYIIGTIYINGRPRHLHIEIIVSKINGRWFVENVRMKVE | 2.14
3 | SEEDHHTERIVEEFIEAERTGDEDHLLELIDPHVRVDVNGVELHGREELYKFWRDWLTKFKNARIEIRHVNNQGDKSTVLVLRRINGVDLETHVKWVFVNGKLKSITIRLN | 1.49
4 | SEEDHIMEELARIFWKLMTTGDFDTLEHLMDPHTRLEVNGRIFVGREASEELWRFYKNVRTEIEDVKAQGDKNHIKGHQKFNGREKTVHIHLTIVDGRLKSMSIKEH | 2.23
5 | SEEDHLVDLMLKFLIESLKTGDEKTLRKLVDPNDKVVFNGRELHGRRALEYWLERFDHAHRFHIEDFTVQGDYMIVRVKLDGHVDGVRMETTIHLILVKYDGRWFVKMTIFN | 1.26
6 | SEEDHRAKHIFHLFLHWFLTGDWEIFEHYADPRMRTLVNGKNFHGWEETVKFLDHIFKELRVHHIHVDHLEVQGDKYHFEVRVDREYNGRREITIMYIHFLIFNGKVKSILIIIH | 1.08
7 | SEEDKATEKFLRELSEWHRTGDEEHFVRNLDPHVRVDIDGVELHGREEVERHLRKRWEKLGVDRFDSELRFKHIHVQGDKIEIHIRIILDINGVHRNVDVEIIALKVNGRWLIQSYHIR | 2.24
8 | SEEDKEFEDLIKFWIHLLETGDFDTLRDLADPHVRVTIDGRDLHGREILLTFWEKVKNIKLDLKSIRVINGVVIMHGDTNFDGKRSHVELHIKKINGRWYITEFRIE | 2.25
9 | SEEDKELEEFFRMYIHAARTGDWHTLTRLLDPNVLLMVNGRETHGMDKVKELLKRLGVDYINIEHVEVHRMDFQGDKLRMDTTEDGFVNGVRTHRSVHHILVKVDGRWYIESVHIK | 2.02
10 | SEEDKEREEWLHLLKHSLETGDEQALSRMADPHVRLVVGDKELHGREDYERHWREFLERFPNVTTEVRLRRVEIYGDKIRIDTELRIHVGDKHHSLRVDLIMVKVDGRWFMKEIRIK | 1.21
11 | SEEDKESEEAFKIAKELLETGDEDLHKHLFDPNARLVVGDKHHHGRELLVKFWSDFGIDHIEIHDIKLVNGRLDTDTTVRFNGRTLKMRIIIIKVNGKWEIKSMTVH | 0.667
12 | SEEDKETKIALEISEKILETGDWEELSKNLDPDARFTFENRTHVGREEVSELLLKLIKEMGVNHVNIEDNDLQGDKIILIVEVRVGDKRVNLEIIAVKVNGRWRIHSIHERHE | 0.884
13 | SEEDKEVKFFMERLNHLLLTGDEELIMEMLDPNARMTINGVDTHGRETLSKLWTDKLRHLRLKQIHIHDWRSINGRADNKGHERGFVGDKEDNWESELLFVFVNGRLKSISVHLR | 1.21
14 | SEEDKHASKLADLVVEMWMTGDEEKLRHLADPDVKLHIEFNGVNRNHHGRDVMIEVMQRIREEIRIHDIKIHNWHTINGRWHIDSIVDGKFNGRRHETRTEVILEVIDGRIKVISFIFQ | 1.07
15 | SEEDKHHETLARLIIEALTTGDEESLMHLMDPNARIQIGDKDNHGWRSLHIHHRELGIDHKEIRVREVRFVNGKIHIDSQVHFHFNGVTFDVRTHIILVVINGKLTKMWVIIG | 0.363
16 | SEEDKHLLHLMHLFLHWFDTGDEEQFWHYADPHVRMSVNGVHLHGRETVMRQISRTLKEWRVDDRRIHDSHTVNGVVHQDGRVDGEFNGKRDTREYYLIIVIFNGRIHSVEIHIK | 1.46
17 | SEEDKHLRKMAQDILEWLFTGNWKDFFDNLDPNYRVEWNGKERIGRDLTRRMLETIRREMRLHDIKIHHFTAIDGVIHIDGSEYIHVDGVTTEVKTHIHIVIFNGRIKRIEFHDH | 1.48
18 | SEEDKHTEKLVRELWHAFETGDEDFILDMADPDVKFDFNGRKNVGREEFSRIWEDIFRRFKNIQLELTSITFQGHKVHTKGRTRINGKHHELIVHVVIVNGRLESLTIIIN | 1.49
19 | SEEDKIALEILEMTKKLWDTGDEELMVDLVDPHVKVDWDGRERHGREAVEFFFRSIIEKVKNLTIRLTDFRVINGRIEIDSTLKFNGKTLEVRIISTKIDGQWYIESISFR | 1.38
20 | SEEDKIVHEMMERLLKNWQTGNWEEIEKLFDPNAKLLVDGVELHGREEMSRHWEEKLNQIDHLRIRIRDYRYFDGRLRVEGEEIHYVNGKDITREVEIRLQVINGVVESIEFHRR | 1.42
21 | SEEDKKVEEAIKYLYSFLKTGDEHEVEDMIDPHVRIDVNGKNVHGWEEAFRWTVEHMKKLGVERFEVEIKDVHKQGNYVRVLGHSRFNGKEYEIEIILIKVNGRWIIKSHRIH | 1.64
22 | SEEDKLAREIFEETIRILLTGDEEKLEELLDPRVRVHIHIGDKRIDLHGREEMSKWLHEIRIEHFHIDDLKVQGDKLHADTHEVVRIGDKRIETRTEWELVVVNGRLKELHIRVK | 1.74
23 | SEEDKLIKDAFTEIHTWIKTGNEEYLERLVDPHVKIIINGRELHGMEFLHEELKRFDHLHLRDHHLESFDIQGNKIVLEGTNDIEIKWNGVRIRTELEIHFFVEKVNGKWIIREFVIV | 1.26
24 | SEEDKLMRDIERLVLEWLETGDEDALKKMLDPHVRVEFNGVERIGMDELARLLKHLRFDHIHIRNSRVINGVIHIDGHIDGTINGRRVRHDLEVRIIIVNGRFKEIILIDR | 1.21
25 | SEEDKLSEELARRWIHLFETGDEETILHLADPHMKYILIINGRNEIHHGMKMMSEELKRIKGARFEIKRIEVQGDKVHLDVRIRIDGVEIDSEIDLKIVDGRLRELKVTIK | 2.07

Row | Sequence | protease stability score
26 | SEEDKMVEDWLREWIELHLTGDFEQWESLFDPNTRSRAHVGDKRFESHGREQVVEVRHEIKREMRITDIDDKHIRVFNGRADLIGFMRGDINGRHVRLEIHVILVIVNGKRKEEEVRIH | 0.155
27 | SEEDKSFEIMFKLFKEASDTGDEKTLSELFDPDTRIDIGDKHLHGREEAVRMWRELRIHDIRVKSFDIIGNKIHLDTHVNGLVNGRLHRTDSKIILLKVNGQWRIESYHVD | 1.77
28 | SEEDKTALEMFERLIHAWLTGDEDEMRRMADPHVKIDKEFENHEVQFHGREDFVRWVIEVRDRIDHLEIRNHSIRTWNGVVHVHTTLFLNYDGKLFILRTEFRLFVIDGRLREERFMLH | 0.282
29 | SEEDKWAEIMARLMSYLNHTGDEENFDRLADPDVRMDINGREVHGRETFNRYLRHIRIRFHDLISRDSTEVNGVLIIHGESDITIEYDGVRLRDHPKSVFYVLKINGRWRIKSISFH | 1.41
30 | SEEDKWIKDMTHLFLHWFLTGDEEIFNHFADPNVRVQYGDKWRVGRERVSEFNEFVLRELRFKEIRLKNLSTQGEKATSIVRVDVQFDGKEIDIEIRIHIVVVDGVLKQVEIRET | 0.795
31 | SEEDKYAKLVIRLLEEMIRTGDEESSIRLADPHARVNINGKDMHGREEFTKWIRQFDVVRDFELKDSDYQGDFIFVDGVLDGEVGDKRMRTKVEIIIFKFNGKWRTKEVWVR | 1.38
32 | SEEDQHIEEALRRISKVIHTGDEDKLEELVDPHVRLDVGDKVFHGWEDFVRFMTELRFHHMHVTHLETQGDKVRVELSLDREQGDKRKEMHAHIVLEKIDGKWVVREVEMR | 1.35
33 | SEEDQLLHHQMETWRHMIHTGDEELLERFLDPTVRIEYDGQEHHGRETAAHLFRELAEKLGIEFEDLEIHETEIQGDKIRVDTILYVDINGRKLVFRTHTVWEKINGRWILREIKIE | 0.043
34 | SEEDRDLHESAKLSEEIEDTGDEHMIHKQADPNVRLDYNGREFHGREMFSKMMIEWFTKLGVDHVHRKEMRIQGDWIHLHFEVRVGDKRHEVHVVALKVNGRWLHHSFEVHER | 1.16
35 | SEEDRDMEHVINVLRHLMVTGDEEELTKMADPTAYSDVNGVELHGREAFSRIVKLMGVKHVEIRDFTVQGDKVDVDGETRFENHHRFSIIHLRKINGRWYIERMRLE | 0.771
36 | SEEDRDRHKALELIRESSRTGNEELTSRLADPHVRLVFNGRDVHGREEMVRYMHEFGIDHLHIDRLHVQGDKIHIEGSNDWNGVVTELHVLMVKVNGRWRIREVEWR | 1.23
37 | SEEDRDVRHFLEVWWHRVQTGDEDSLHELADPRMRVDINGRILHGREHISRFMIELTESFGATPEDFQIEHVDTVGNKVHIKTRIFIRQGNFNLIRDTEMIVLKVDGRWLLTEVRVR | 2.6
38 | SEEDRFAIEVSEELSRAIETGDEDRLRHLLDPNVKVNVGDKTLHGREEYLHYLRELLRDLGVDVIHIEFQDVRFIGDKLVIDGSLDLRVGDKVIEHKITIIIWKFDGRWVSHSEHIH | 1.25
39 | SEEDRFLYEFARTILHLFETGNEEIFHKLADPHVRLHVNGVDNVGWERSYKFFHEEVRELRFHTWRIRDHRTFENRAHLDIEVDTEFNGVRLHLKSTLDVVVVNGRLKFFHIKQE | 0.424
40 | SEEDRILELIARMMFNLWLTGNEEELERLVDPNARSVINGQEVHGMHETKELLRRLKEHIRIDDMRISRIEVYNGRAIVDLSVDGEFNGRRDITRVEIVIYVVDGKVRSIEFHRK | 1.78
41 | SEEDRLHEEWIEESFKIWETGDEERFWKMVDPEYLFRLDIDGVHLESHGRENAREHFREQLSRLGIKYLDLHEIHLQGNKAILDVRVNFNGQERHVIIRLLIIDGRIKKREIEIR | 1.41
42 | SEEDRLLEELLKLYLHLEATGNEDRFAELVDPDARMDFNGREHHGREEIRHHMVKHWKDLGVKHLHIDRFRYFNGVLDVRGHLKVNGREKDVVWILEIIDGRIHEIRHHLH | 1.28
43 | SEEDRSSREAVEIYIWIIETGDEHLMEEFLDPHVRSHQGEFHSHGREVAHVYVKKFKNLKVRVREVRTQGDKVIIISEMRIGDFRLELTIIIWKYNGKWIVQEVDIK | 1.67
44 | SEEDRYDKKMLERLNEAEHTGDWRLFLRQADPDPRTVIGDKELHGWEILEEFLLKIHEQYKGMRFEYRDIDVQGDKIRIEYDLFINGKFTETILIADKVNGKWIIKSHELR | 0.898
45 | SEEDSKAMEMLDEWLKWLLTGNEHIFRTLADPHVRLTIGDKEHVGREHVIRMFHELRIDHFHVHDVRTQGDKAFMSGRMEGTVDGKKEDTDIRIFLVIVNGRIKHIELRIH | 1.52
46 | SEEDTERTERFELMLHSWLTGDEEFWEKNADPNARLKLLVNGRDIRFHGREMVSEAIRKTLDDLGVDHRRIEHKEVQGDKVHIHQKIDVGDKELKVRIVVVVINGRNEMIIVEVI | 2.26
47 | SEEDTMAKTLTKMEIELLRTGDEDLLWRLADPNVKLHINGRDLHGRETFEEWMKRFLEQVDVLRIEHREIRTAEGHLELDMHVDSYFDGVRFTTRLIVEVIKVDGRWFIRFREEQ | 1.21
48 | SEEDVLHHELARIYWRDFVTGDEDSLRRLMDPEAKVNFDGRENHGREFYEEILRLFLEKFRGVRFEEHRSRFIGEFTHIDVRMHIDGKTHSLKVLVTVVNGKVHSIHIQLR | 1.26
49 | SEEEDDLQHYIDVLRHILHTGDWQKFSEMADPTVKLKINGVEYHGREKLAHMLKKHLEELGYTRIEVELRSITIQGEFIKSDIKLDVNGQELRVRVDFYKINGKWSMTFLQIE | 1.45
50 | SEEEDEIRKMLEEVLKNWRTGNEERIYELADPNTRVEIDGREHHGRHVVAHLIKEWRIHDFILRRVDVQGNKVIIHGELEGEFDGKRTNLHTNLVLVKIDGRWVIESLHYV | 1.41
